Experimental data reported in the RNAGym collection of RNA variant scans (doi:10.1021/acssynbio.7b00057).

B1: Pistol ribozyme (parent)
chain: GGGUCGUUGUUCCAUAAUCGCGUGGAUAUGGCACGCAAGUUUCUACCGGGCACCGUAAAUGUCCGACUGGAGCCGUUCGGGCGGCUAUAAACAGACCUCAGGCCCGAAGCGUGGCGGCACCUGCCGCCGGUGGUAAAAAAGAUCGGAAGAGCACACGUCU

Variants of: B1
Assay: aptazyme ON/OFF ratio, guanine; higher = stronger switching; co-transcriptional cleavage with and without guanine

Variant	aptazyme ON/OFF ratio
U7A U8G G9A U10C U11G C12A	1.12
U7A U8G G9A U10C U11G C12U	1.26
U7A U8G G9A U10C U11G C12G	1.33
U7A U8G G9A U10A U11A C12A	1.45
U7A U8G G9A U10A U11A C12U	1.31
U7A U8G G9A U10A U11A C12G	1.46
U7A U8G G9A U10A C12A C13A	1.27
U7A U8G G9A U10A C12A C13G	1.06
U7A U8G G9A U10A C12A C13U	1.37
U7A U8G G9A U10C U11G C13U	1.25
U7A U8G G9A U10C U11G C13G	1.3
U7A U8G G9A U10C U11G C13A	1.19
U7A U8G G9A	3.13
U7A U8G G9A U10A U11C C13U	1.04
U7A U8G G9A U10A U11C C13G	1.04
U7A U8G G9A U10A U11C C13A	1.05
U7A U8G G9A U10C U11A C12U C13U	1.1
U7A U8G G9A U10C U11A C12U C13A	1.11
U7A U8G G9A U10C U11A C12U C13G	1.06
U7A U8G G9A C12A C13A	1.41
U7A U8G G9A C12A C13U	1.35
U7A U8G G9A C12A C13G	1.19
U7A U8G G9A U10A U11A C12A C13A	1.3
U7A U8G G9A U10A U11A C12A C13U	1.29

Variant	aptazyme ON/OFF ratio
U7A U8G G9A U10A U11A C12A C13G	1.13
U7A U8G G9A U10C U11C C13G	1.03
U7A U8G G9A U10C U11C C13A	1.07
U7A U8G G9A U10C U11C C13U	1.03
U7A U8G G9A U10A U11G C12G	1.26
U7A U8G G9A U10A U11G C12A	1.08
U7A U8G G9A U10A U11G C12U	1.14
U7A U8G G9A U10A U11G C12G C13A	1.38
U7A U8G G9A U10A U11G C12G C13U	1.48
U7A U8G G9A U10A U11G C12G C13G	1.46
U7A U8G G9A C12U C13G	1.23
U7A U8G G9A C12U C13A	1.28
U7A U8G G9A C12U C13U	1.04
U7A U8G G9A U10C U11G C12A C13G	1.19
U7A U8G G9A U10C U11G C12A C13A	1.18
U7A U8G G9A U10C U11G C12A C13U	1.28
U7A U8G G9A U10A C13U	1.26
U7A U8G G9A U10A C13G	1.18
U7A U8G G9A U10A C13A	1.41
U7A U8G	1.13
U7A U8G G9A U10C U11A C12G	1.13
U7A U8G G9A U10C U11A C12U	1.2
U7A U8G G9A U10C U11A C12A	1.24
U7A U8G G9A U10C U11A C12G C13A	1.04

Variant	aptazyme ON/OFF ratio
U7A U8G G9A U10C U11A C12G C13U	1.22
U7A U8G G9A U10C U11A C12G C13G	1.13
U7A U8G G9A U10A U11A C12G C13G	1.34
U7A U8G G9A U10A U11A C12G C13A	1.29
U7A U8G G9A U10A U11A C12G C13U	1.37
U7A U8G G9A U10G C12A	1.24
U7A U8G G9A U10C C12A	1.25
U7A U8G G9A U10C C12U	1.23
U7A U8G G9A U10C C12G	1.35
U7A U8G C13G	1.1
U7A U8G C13U	1.2
U7A U8G C13A	1.42
U7A U8G G9A U10A U11G C13U	1.09
U7A U8G G9A U10A U11G C13G	1.27
U7A U8G G9A U10A U11G C13A	1.13
U7A U8G G9A U10C C12U C13A	1.17
U7A U8G G9A U10C C12U C13U	1.27
U7A U8G G9A U10C C12U C13G	1.13
U7A U8G G9A U10A U11G	1.8
U7A U8G G9A U10A U11C	1.03
U7A U8G G9A U10A U11A	1.8
U7A U8G G9A U10A U11C C12A C13U	1.16
U7A U8G G9A U10A U11C C12A C13G	1.33
U7A U8G G9A U10A U11C C12A C13A	1.32

Variant	aptazyme ON/OFF ratio
U7A U8G G9A U10C U11C C12A C13A	1.09
U7A U8G G9A U10C U11C C12A C13U	1.04
U7A U8G G9A U10C U11C C12A C13G	1.22
U7A U8G G9A U10A U11C C12G	1.37
U7A U8G G9A U10A U11C C12U	1.04
U7A U8G G9A U10A U11C C12A	1.44
U7A U8G G9A U10C U11G C12U C13G	1.33
U7A U8G G9A U10C U11G C12U C13U	1.23
U7A U8G G9A U10C U11G C12U C13A	1.21
U7A U8G G9A U10A C12G C13U	1.34
U7A U8G G9A U10A C12G C13A	1.52
U7A U8G G9A U10A C12G C13G	1.33
U7A U8G C12G	1.27
U7A U8G C12U	1.61
U7A U8G C12A	1.22
U7A U8G G9A U10C U11A C13G	1.1
U7A U8G G9A U10C U11A C13A	1.16
U7A U8G G9A U10C U11A C13U	1.2
U7A U8G G9A U10C C12A C13G	1.14
U7A U8G G9A U10C C12A C13U	1.12
U7A U8G G9A U10C C12A C13A	1.05
U7A U8G G9A U10C U11C C12G C13G	1.09
U7A U8G G9A U10C U11C C12G C13U	1.04
U7A U8G G9A U10C U11C C12G C13A	1.11

Variant	aptazyme ON/OFF ratio
U7A U8G G9A U10A U11C C12U C13G	1.17
U7A U8G G9A U10A U11C C12U C13U	1.26
U7A U8G G9A U10A U11C C12U C13A	1.15
U7A U8G G9A U10C U11C	1.02
U7A U8G G9A U10C U11G	1.74
U7A U8G G9A U10C U11A	1.68
U7A U8G G9A U10G C12A C13A	1.39
U7A U8G G9A U10G C12A C13G	1.13
U7A U8G G9A U10C C13U	1.25
U7A U8G G9A U10C C13A	1.03
U7A U8G G9A U10C C13G	1.1
U7A U8G G9A U10C U11A C12A C13A	1.12
U7A U8G G9A U10C U11A C12A C13U	1.19
U7A U8G G9A U10C U11A C12A C13G	1.11
U7A U8G G9A C12G C13U	1.37
U7A U8G G9A C12G C13A	1.19
U7A U8G G9A C12G C13G	1.81
U7A U8G C12G C13G	1.27
U7A U8G C12G C13A	1.38
U7A U8G C12G C13U	1.38
U7A U8G G9A U10C U11G C12G C13G	1.16
U7A U8G G9A U10C U11G C12G C13U	1.1
U7A U8G G9A U10C U11G C12G C13A	1.22
U7A U8G G9A U10C	2.9

Variant	aptazyme ON/OFF ratio
U7A U8G G9A U10G	1.43
U7A U8G G9A U10A	1.4
U7A U8G G9A C12U	1.63
U7A U8G G9A C12G	1.79
U7A U8G G9A C12A	1.69
U7A U8G G9A U10A C12U C13U	1.04
U7A U8G G9A U10A C12U C13A	1.38
U7A U8G G9A U10A C12U C13G	1.13
U7A U8G G9A U10A U11G C12U C13G	1.52
U7A U8G G9A U10A U11G C12U C13A	1
U7A U8G G9A U10A U11G C12U C13U	1.33
U7A U8G G9A C13U	1.39
U7A U8G G9A C13A	1.39
U7A U8G G9A C13G	1.18
U7A U8G G9A U10A C12U	1.37
U7A U8G G9A U10A C12A	1.3
U7A U8G G9A U10A C12G	1.53
U7A U8G G9A U10A U11A C12U C13U	1.07
U7A U8G G9A U10A U11A C12U C13G	1.29
U7A U8G G9A U10A U11A C12U C13A	1.2
U7A U8G G9A U10A U11G C12A C13U	1.4
U7A U8G G9A U10A U11G C12A C13G	1.37
U7A U8G G9A U10A U11G C12A C13A	1.1
U7A U8G G9A U10C U11C C12U C13A	1.06

Variant	aptazyme ON/OFF ratio
U7A U8G G9A U10C U11C C12U C13G	1.08
U7A U8G G9A U10C U11C C12U C13U	1.07
U7A U8G C12A C13A	1.27
U7A U8G C12A C13G	1.25
U7A U8G C12A C13U	1.31
U7A U8C U11G C13G	1.15
U7A U8C U11G C13U	1.21
U7A U8C U11G C13A	1.12
U7A U8G G9A U10C U11C C12G	1.07
U7A U8G G9A U10C U11C C12A	1.13
U7A U8G G9A U10C U11C C12U	1.08
U7A U8G G9A U10A U11C C12G C13G	1.08
U7A U8G G9A U10A U11C C12G C13A	1.21
U7A U8G G9A U10A U11C C12G C13U	1.33
U7A U8G G9A U10C C12G C13A	1.19
U7A U8G G9A U10C C12G C13G	1.38
U7A U8G G9A U10C C12G C13U	1.17
U7A U8G C12U C13G	1.24
U7A U8G C12U C13U	1.53
U7A U8G C12U C13A	1.23
U7A U8G G9A U10A U11A C13G	1.17
U7A U8G G9A U10A U11A C13A	1.19
U7A U8G G9A U10A U11A C13U	1.17
